Assay results reported in patent US11278600B2, “Human alpha-galactosidase variants” (Codexis, Inc., priority 2014, dated 2022).
Substitutions are numbered along the chain they refer to. Numbers in names are those of the source.

B1: Variant 73: GLA variant; K206A relative to SEQ ID NO: 5 (protein)
chain: LDNGLARTPTMGWLHWERFMCNLDCQEEPDSCISEKLFMEMAELMVSEGWKDAGYEYLCIDDCWMAPQRDSEGRLQADPQRFPHGIRQLANYVHSKGLKLGIYADVGNKTCAGFPGSFGYYDIDAQTFADWGVDLLKFDGCYCDSLENLADGYKHMSLALNRTGRSIVYSCEWPLYMWPFQKPNYTEIRQYCNHWRNFADIDDSWASIKSILDWTSFNQERIVDVAGPGGWNDPDMLVIGNFGLSWNQQVTQMALWAIMAAPLFMSNDLRHISPQAKALLQDKDVIAINQDPLGKQGYQLRQGDNFEVWERPLSGLAWAVAMINRQEIGGPRSYTIAVASLGKGVACNPACFITQLLPVKRKLGFYEWTSRLRSHINPTGTVLLQLENTMQMSLKDLL
modifications: Synthetic Polypeptide sequence of Variant No. 73
B2: 299 (protein)
chain: B1 chain with F217R, N247D, Q302K, M322I, K343G, A350G, E367T, R373K, L397F
modifications: Synthetic Polypeptide sequence of Variant No. 299 of mature Human GLA
B3: 297 (protein)
chain: B1 chain with F217R, G230V, N247D, Q302K, M322I, E367N, T369S, R373K
modifications: Synthetic Polypeptide sequence of Variant No. 297 of mature Human GLA
B4: 298 (protein)
chain: B1 chain with F217R, N247D, L316D, M322I, A337P, A350G, K362Q, E367N, R373K
modifications: Synthetic Polypeptide sequence of Variant No. 298 of mature Human GLA
B5: 359 (protein)
chain: B1 chain with L44R, L100F, Q181I, R221T, N247D, Q302K, M322V, E367N, R373K, I376V
modifications: Synthetic Polypeptide sequence of Variant No. 359 of mature Human GLA
B6: 296 (protein)
chain: B1 chain with A66T, F217R, L316D, M322I, A337P, K343G, A350G, E367N, R373K
modifications: Synthetic Polypeptide sequence of Variant No. 296 of mature Human GLA
B7: SP-GLA: 19 amino acid S. cerevisae MFalpha signal peptide fused to the mature form of yeast-optimized GLA (protein)
chain: MRFPSIFTAVLFAASSALALDNGLARTPTMGWLHWERFMCNLDCQEEPDSCISEKLFMEMAELMVSEGWKDAGYEYLCIDDCWMAPQRDSEGRLQADPQRFPHGIRQLANYVHSKGLKLGIYADVGNKTCAGFPGSFGYYDIDAQTFADWGVDLLKFDGCYCDSLENLADGYKHMSLALNRTGRSIVYSCEWPLYMWPFQKPNYTEIRQYCNHWRNFADIDDSWKSIKSILDWTSFNQERIVDVAGPGGWNDPDMLVIGNFGLSWNQQVTQMALWAIMAAPLFMSNDLRHISPQAKALLQDKDVIAINQDPLGKQGYQLRQGDNFEVWERPLSGLAWAVAMINRQEIGGPRSYTIAVASLGKGVACNPACFITQLLPVKRKLGFYEWTSRLRSHINPTGTVLLQLENTMQMSLKDLL
modifications: Synthetic Polynucleotide sequence of SP-GLA (yCDS)
notes: 19 amino acid S. cerevisae MFalpha signal peptide fused to the mature form of yeast-optimized GLA

Legend:
Type in all cases: biochemical
GLA = target: T1, GLA (Homo sapiens, UniProt P06280); test: Effect of Migalastat on thermostability and activity of GLA (HEK293T supernatants)
T1 construct: made in house; host or cells: HEK293 / HEK293T cells, transient transfection; unpurified culture supernatant used
T1 sequence (P06280 32-429): B1 chain with A206K
Procedure: GLA variants were challenged at various temperatures in the presence and absence of 1 μM 1-deoxygalactonojirimycin (Migalastat) to assess their overall stability. Supernatants from mammalian cell cultures were normalized to approximately equal activities by dilution with supernatant from a non GLA expressing culture. Diluted supernatants were added to the wells of a 96-well PCR plate (Biorad, HSP-9601). The plates were sealed and incubated at 30-54° C. for 1 h using the gradient program of a thermocycler. For the assay, 20 μL, of challenged supernatant was mixed with 30 μL, of 1 M citrate buffer pH 4.3 and 50 μL, of 4 mM MUGal in McIlvaine buffer pH 4.8. The reactions were mixed briefly and incubated at 37° C. for 90 minutes, prior to quenching with 100 μL, of 1 M sodium carbonate. Hydrolysis was analyzed using a SpectraMax® M2 microplate reader monitoring fluorescence (Ex. 355 nm, Em. 448 nm).

[1] = Thermostability of GLA variants expressed in HEK293T cells; details: HEK293T supernatants; 30-54° C. for 1 h; residual MUGal activity
[2] = HTP-analysis of yeast culture supernatants, no challenge (MUGal hydrolysis); details: activity of the variant/activity of Rd3BB (SEQ ID NO: 13), yeast culture supernatant
Summary of the method: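 GLA variants were expressed in INVSc1 yeast grown in SD-Ura broth with glucose at 30° C., and culture supernatants were collected after 66-84 h. Supernatant was mixed with McIlvaine buffer pH 4.8 and MUGal (2 mM stock) in 50 mM citrate, 200 mM KCl, pH 4.6, incubated at 37° C. for 30-180 minutes, then quenched with sodium carbonate.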

[3] = HTP-analysis of supernatants pretreated with acid (MUGal hydrolysis); details: challenge at pH 4.0; activity of the variant/activity of Rd3BB (SEQ ID NO: 13); yeast culture supernatant
Summary of the method: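 Supernatants from INVSc1 yeast secreting GLA variants were challenged at 37° C. for 1-3 h in McIlvaine buffer at pH 3.3-4.3. Residual activity was then measured on 4 mM MUGal substrate stock at pH 4.8 with citrate buffer pH 4.3, over 30-180 min at 37° C. Reactions were quenched with sodium carbonate and read by fluorescence (Ex 355/Em 448 nm).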

[4] = HTP-analysis of supernatants pretreated with base (MUGal hydrolysis); details: challenge at pH 8.2; activity of the variant/activity of Rd3BB (SEQ ID NO: 13); yeast culture supernatant
Summary of the method: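 GLA variants secreted from yeast INVSc1; culture supernatants pre-incubated with McIlvaine buffer pH 7.0–8.2 or 200 mM bicarbonate pH 9.1–9.7 at 37° C. for 1–18 h. Residual activity: MUGal (4 mM stock) hydrolysis at pH 4.3–4.8, 37° C., 30–180 min, carbonate quench; fluorescence Ex 355/Em 448 nm.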

[5] = HTP-analysis of supernatants pretreated with bovine serum (MUGal hydrolysis); details: activity of the variant/activity of Rd3BB (SEQ ID NO: 13), yeast culture supernatant
Summary of the method: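 Yeast INVSc1 culture supernatants containing secreted GLA variants were mixed with bovine serum (20:80) and held 1 h at 37° C. Serum-treated samples then reacted with MUGal (4 mM stock) in citrate/McIlvaine buffer (pH 4.3/4.8) for 180 min at 37° C., were quenched with sodium carbonate, and read by fluorescence (Ex 355, Em 448 nm).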

[6] = Optimization of signal peptide for secreted expression of GLA by S. cerevisiae
From the text: Two strategies for secreted GLA expression were utilized, using the yeast MFa signal peptide (MF-SP) or a longer leader sequence of 83 amino acids (MF-leader) to drive secretion of a yeast codon-optimized mature human GLA. Clones were expressed from a pYT-72 vector in S. cerevisiae strain INVSc1. Both approaches provided supernatants with measurable activity on the fluorogenic substrate 4-methylumbelliferyl α-D-galactopyranoside (4-MuGal). However, the construct with the yeast MFa signal peptide provided 3-fold higher activities and was used as the starting sequence for directed evolution.
S. cerevisiae transformed with Mfleader-GLA (SEQ ID NO:7), SP-GLA (SEQ ID NO:36) or a vector control were grown in HTP as described in Example 2. Cultures were grown for 48-120 h prior to harvest of the supernatant and analysis (n=6) as described in Example 2. FIG. 1 provides a graph showing the relative activity of different GLA constructs in S. cerevisiae after 2-5 days of culturing.

Molecule | Relative Activity of GLA Variants After No Challenge (NC) [2] | Relative Activity of GLA Variants After Challenge at pH 4.0 [3] | Relative Activity of GLA Variants After Challenge at pH 8.2 [4] | Relative Activity of GLA Variants After Challenge with Serum [5] | also measured
OC[C@H]1NC[C@H](O)[C@@H](O)[C@H]1O [Migalastat, 1-deoxygalactonojirimycin] | – | – | – | – | reduction of GLA activity in the Migalastat treated sample (GLA; 0.2 μM final concentration in the assay): ~60%; increase of Tm of GLA by addition of Migalastat (GLA; 1 μM Migalastat during temperature challenge): 5.5 °C
B1 | – | – | – | – | increase of Tm of the enzyme [1]: 2 °C
B2 | + (+ = 0.5 to 1.5 relative activity over Rd3BB (SEQ ID NO: 13)) | − (− = <0.5 relative activity to Rd3BB (SEQ ID NO: 13)) | − (− = <0.5 relative activity to Rd3BB (SEQ ID NO: 13)) | − (− = <0.5 relative activity to Rd3BB (SEQ ID NO: 13)) | –
B3 | − (− = <0.5 relative activity to Rd3BB (SEQ ID NO: 13)) | − (− = <0.5 relative activity to Rd3BB (SEQ ID NO: 13)) | − (− = <0.5 relative activity to Rd3BB (SEQ ID NO: 13)) | − (− = <0.5 relative activity to Rd3BB (SEQ ID NO: 13)) | –
B4 | ++ (++ = >1.5 to 2.5 relative activity over Rd3BB (SEQ ID NO: 13)) | +++ (+++ = >2.5 relative activity over Rd3BB (SEQ ID NO: 13)) | +++ (+++ = >2.5 relative activity over Rd3BB (SEQ ID NO: 13)) | +++ (+++ = >2.5 relative activity over Rd3BB (SEQ ID NO: 13)) | –
B5 | + (+ = 0.5 to 1.5 relative activity over Rd3BB (SEQ ID NO: 13)) | + (+ = 0.5 to 1.5 relative activity over Rd3BB (SEQ ID NO: 13)) | +++ (+++ = >2.5 relative activity over Rd3BB (SEQ ID NO: 13)) | + (+ = 0.5 to 1.5 relative activity over Rd3BB (SEQ ID NO: 13)) | –
B6 | + (+ = 0.5 to 1.5 relative activity over Rd3BB (SEQ ID NO: 13)) | − (− = <0.5 relative activity to Rd3BB (SEQ ID NO: 13)) | − (− = <0.5 relative activity to Rd3BB (SEQ ID NO: 13)) | + (+ = 0.5 to 1.5 relative activity over Rd3BB (SEQ ID NO: 13)) | –
B7 | – | – | – | – | level of active enzyme produced in S. cerevisiae ([6]; 2-5 days of culturing, saturated after three days of growth): high level of active enzyme; supernatant activity on 4-MuGal, fold higher than MF-leader construct ([6]; S. cerevisiae INVSc1 supernatant, versus MF-leader construct): 3 fold
